Laboratory results reported in the DeepSol protein solubility set.

Experiment: soluble on expression in E. coli; label from the status in PepcDB or PDB records

Row | Sequence | soluble on expression in E. coli
1 | RHMASIEKVANCIRCLAADIVQGGKSGHPGTPMGMAPMSAVLWTEVMKYNSQDPDWVDRDRFVMSNGHGCALQYALLHMAGYNLTMDDLKGFRQDGSRTPGHPERFVTPGVEVTTGPLGQGIANAVGLAIAEAHLAATFNRPGYNIVDHYTYVYCGDGCLMEGVCQEALSLAGHLALEKLIVIYDSNYISIDGSTSLSFTEQCHQKYVAMGFHVIEVKNGDTDYEGLRKALAEAKATKGKPKMIVQTTTIGFGSSKQGTEKVHGAPLGEEDIANIKAKFGRDPQKKYDVDDDVRAVFRMHIDKCSAEQKAWEELLAKYTAAFPAEGAAFVAQMRGELPSGWEAKLPTNSSAIATRKASENCLAVLFPAIPALMGGSADLTPSNLTRPASANLVDFSSSSKEGRYIRFGVREHAMCAILNGLDAHDGIIPFGGTFLNFIGYALGAVRLAAISHHRVIYVATHDSIGVGEDGPTHQPVELVAALRAMPNLQVIRPSDQTETSGAWAVALSSIHTPTVLCLSRQNTEPQSGSSIEGVRHGAYSVVDVPDLQLVIVASGSEVSLAVDAAKALSGELRVRVVSMPCQELFDAQPDTYRQAVLPAGVPVVSVEAYVSFGWEKYSHAHVGMSGFGASAPAGVLYKKFGITVEEVVRTGRELAKRFPDGTAPLKNSSFSKM | soluble
2 | MSLQYQVVPVTAFAQNCSIVWCDETMEGIVVDPGGDVKQLAMLIAELGVKVTQLVLTHGHLDHVGGTQSLAQALGGTRVVGPHKADNFWLQGLEGQSKMFGFPLTEAFEPDEWLDDGDVIHFGQQTLQVIHTPGHTPGHVVLFSEAARLAFVGDVLFNGSIGRTDFPQGDFNTLIASIKNKLWPLGSDVTFIPGHGPQSTFGRERASNPFVADEMPLY | not soluble
3 | MSLDGSVAAAGLGLGLPTTDSRGHYQLLLSGRALADRYRRIYTTALSDRDQAGSSTGHPASRNKKILNKKKLKRKQKSKSKVKTRSKSENVENTVIIPDIKLHSNPSAFNIYCNVRHCVLEWQKKETSLAAASKNSVQSGESDSDEEEESREPPIKLPKIIEVGLCEVFELIKETRFSHPSLCLRSLQALLNVLQGQQPEGLQSEPPEVLESLFQLLLEITVRSTGMNDSTGQSLTALSCACLFSLVASWGETGRTLQAISAILTNNGSHACQTIQVPTILNSLQRSVQAVLVGKIQVQDWFSNGIKKAALMHKWPLKEVSVDEDDQCLLQNDGFFLYLLCKDGLYKIGSGYSGTVRGHIYNSTSRIRNRKEKKSWLGYAQGYLLYRDLNNHSMTAIRISPETLEQDGTVLLPDCHTEGQNILFTDGEYINQIAASRDDGFVVRIFATSTEPVLQQELQLKLARKCLHACGISLFDLEKDLHIISTGFDEESAILGAGREFALMKTANGKIYYTGKYQSLGIKQGGPSAGKWVELPITKSPKIVHFSVGHDGSHALLVAEDGSVFFTGSASKGEDGESTKSRRQSKPYKPKKIIKMEGKIVVYTACNNGSSSVISKDGELYMFGKDAIYSDSSSLVSDLKGHFVTQVAMGKAHTCVLMKNGEVWTFGVNNKGQCGRDTGAMNQGGKGFGVENMATAMDEDLEEELDEKDEGHHHHHH | not soluble
4 | MDLSTSGSLPCHLPLSLLTNLQTPPIDTSFSSPPATSSSSLLSPSPSSAFRPVVPKSLMNPQPAMDTFYMSAIQSLVVSTTNDDQYSEHGALEGSKSLAKDENASTSAGTILCQVCSDKASGFHYGVFACEGCKGFFRRSIQQKITYRACTRAEDCLILRNNRNRCQCCRLKKCLAVGMSRDAVRFGRVPKREKARMFEEMQKTNVQSQRDQIAIQYENLTEVMHKINQAFGTLQATLEKCTGPIYTDRCPITSNFIVIPLKAAIDFANSIPAFLSITQTQRVHLLQNSVFDVMLLASASASTSQHFPPGGLTYDQSSANPIIPQAIQSISARIRQLPPQTVPILTAIAVCQADLLPESQQPMLLAERLWCVLGKLGGIQSLATAPSLLADVRTLRQWHSDRLRQMSQISQHFSQNLLIAPVAAAAPVLLPPAFLSPPASATSTSSSSVKSEFIERHPSIASLLERPRRISSSGAQEPLNLSLPHVRHQVKRDVDSDEQLEEMKVSPVPTTLSE | not soluble
5 | MNFLKKEPFKIFSMIYLLLDTITNRAGTERAVINLANNLHANGHRVSLVSVCTKEGEPSFQVEKGIEVHHLGIRLYGNALARKTVYFKAYRRIKALYKKREPVLLIGTNIFINTILSQISNRGRIFTIGCEHISYDIARPITKRIRGFLYSGLDAVVALTKRDQQSFEAILRGRSKAYVIPNQVSFTTVQRDATTHKQMLAIGRLTYQKGFEFMIEDASRVLRERPDWKLIIVGDGENESMLRKEIASRNMESQIEIHPSTPEIRKYYESSAIYLMTSRFEGLPMVLLEAEAYALPIISYDCPTGPRELIENGRNGFLVPMEAHEDFADKLRLLMDDETLRKKMGQESELMVKSYSPANIYECWKKLFVEIGYMN | soluble
6 | DITEIEEAMNRQRVAGRVFEASQDGLIVLNHKGVITMVNPAVTKLVGLEIDQLVGQSFIQTIRWRKLQEMMPSIIESIENYGVWQGEVIEQNHLGLLVPMFARVNRIVKCENNGFYDLVIILTD | not soluble
7 | MESEKKIAHEIGGVKNDALRFGLHGVKSNIIGSHPLESSYESEKKSKEALKRTVIAHAYGTALPLKMDMDRQILSRFQRPPGPIPSSMLGLEVYTGAVDDFGFEDYLNDPRDSETFKPVDFHHGMEVRLGISKGPIYPSFM | not soluble
8 | MKKVLLFAVVFSCSMWANAQRVTWATEAGLSAIQRTGYGECWRPSTRLGISADYNVNNMFSMKSGLYYTFRGYSVNNGGTYSNGDATWIENVSQTRHFLQVPILAKFSIHSNNSTKFFFEIGSYIGYCIKNHIDSNPYYLTMPSSGWVEGYPGVGESAEGGSNQFLYQHARNFDWGMTSAVGIENRRWTVKLQYEMSLGKESKNDNIGVNYNSLTLSVGYKLNVKQ | not soluble
9 | MGSQAIEAHREGAEVYHGAALCAEKAVELLAEIHMPLGLLPLAEMEEVGYNRATGFVWLRQKKAITHTFKQISRQVSFAAEVTAFVEDRRMKRVTGAKTKELLIWVSLSDMFIDKDDASKITFKTPTGLGRTYPVDAFAKEDDGKGKVPAAAAAANGKETAVNGKAK | soluble
10 | GMDNVAEYRKLIKQVLTEYDNLSRQSPETNYETCLVFDENHDNYLWLAVDWQGSKRIKYTYVHIRIKNEKIYIEEDYTEEGIATELMRLGVTNNDIVLAFHPPDVRKFTDFATA | soluble
11 | MGSDKIHHHHHHFEEVNTDPDSPTDVPTTNLLAYSLYYTSYRLYDRWFAMDEPMTFCGYASKMTYIDESRYNFRTGVQDTNWEYLYRILNNLKDIEKRATFNETPNMLNVSKVMQVHLMQVATDRWRDVPYTDAAKMTDGILQPKYDKQEDIYPGLLATLKEAADGFADGGSDDLGEGDLLFGGDIEKWQRYCNSMRLRLAMRISEVSPALAKETVEEVMGNPTKYPIMESNDDNAFFWWIGTDPNYYEPMADGYRTRKTEYCAADVIVDHMNTREDPRRSSYFQPTKESVEAGEPKYVGYTIGAKANAVASKYSIWGARFFTDLAGFSPYMRVAEPWFCVAEASMLGWNTGISAEDAYNKAVTYSMEENSVSAEDIADYLANAGKFTNDKKQIYYEEWVAMFKQGMEGWSLYRRTGVPDNLYPAPGRPANYSNHNVPPFRSPYPDKERNLNNANCAPFDAEVVDNLWGKQMWWDTRTGVH | not soluble
12 | MRLYINEIKIKDDILYCYTEDSIKGLSEVGQMLVDSDNYAFAYTLDDGKAYAYLIFVQETWTMLHENTTKKIIINDELELTEFHQELTYILDNIKGNNNYGKEFVATVEETFDIE | not soluble
13 | MGIKGSKPKLSKEDLEFLKKNTNFTEEQIKEWYKGFVQDCPKGHLTKEQFIKVYKDFFPSGSAEGFCEHVFRTFDTDNSGFIDFKEFLLAINVTSSGTPEQKLEWAFRMYDIDGNGTIDEKEMIKIIEAIYEMLGPEVTKSADDSPRKRAKMIFEKMDVNNDKELTLKEFVDGCLADKELFQILTNEVKK | not soluble
14 | MEANKKAKPSYGDVISNLPNDLLCRILSYLSTKEAALTSILSKRWSNLLLSIPILDFDDSVLLKPQKGQRKNVFFKAFVDRLLSQRVETSSHVQRVSLKCRQGGVEPDCVIKWILTTVRDLGVLDLSLCIDFGIFHLPFNVFRSKTLVKLRIGTMIRLSQFPSDVVSPTLNSLVLDLVEFRDGDKVEFRQILLAFPSLQSLRVHESNKWKFWNGSASSRTLKSLVYRSDDDSSAPKPCVSFDTPSLVYLDYSDMVADKYENLKFDSLVEARLDLHLTAFQIMRKPNNIGIVSGDVTTLFKGIRNVKILCLSPDALEALYYRGEKIPMFNNLITLSLGSDKPHGSPFIFWKLLPSLLNNSLKLETLIIKGLVHYVAEGWEGLSPMTPMSRLCFSWDTVSDSLSSSAMKVLEISGYKGTWQELNQMKRFLGNLSRLEVVRVYHKAMDDKERINVMFDLFLLPKVSSECDIQVMKETA | soluble
15 | MKWLLLITLSLYSFIVQSAPCGLTNVGEQRGTYILKPLSMKGNLTAEKIENTGNIIECADLQETTNAIKVHFLTQNALRFKVGSRHYIINFPFESDGKKNSASREVIL | soluble
16 | MGSDKIHHHHHHMITYFELKNFRSFSNITLDLRKAYGKPKKVVFIYGENGSGKSNLMSSFLFLLQTLNTFKNQVELKDMPEYKSNLFESIKDDKIRHQLLQQILHMQFITLSNLIDEYKMLGNEKNMSTKFGFRIEESDGSYFMEFSKDKIIKEELRYQINEREGTVFSISKNQITLSPTVFLDLDYKKELQDNIEKYWGKHTFMAILCNEIETKNSNYIKAKINKNLLNVIWEMRGLSVWCKECHGETARISIPLKFMRQLDEGSVKDQNNKELKLCETALNTFFTQLYSDIKAVHYVFTPNENDYSYELCFKKLIDGKLIDIPISLESTGTRKLLEIFPMLFGSVAGTPVFVDEIDSGIHDVLMKNLLERLLESIEGQLIATTHNTLLMESLPTENTYIIRVNATGNKSIDCVANYRQRTQKTNSMRNKYLRGDYDGIPYTGYFDFQELVEDVLDNIPSSDNEDGDEA | not soluble
17 | MGSDKIHHHHHHMKILIKQDFDTMSEWAKMLLLSTMSQDKRVNLSITAGKTPALVYQKLASIVKNSSDFDNVHYYNFDEIPVPHQKEGITLTDLRTLYLTPAEISEQNIHPLTVENFQQQEQRIADAGGLDLMLIGLGADGHFCGNMPTTTHFKNETYQVTVTGSEPWFVPEMMQPGMTFVTMGPASIMKVKHLVLIVNGEQKAQMVKQVLQGPVTETYPASILQLHPNLTVLLDEAAASQLEK | not soluble
18 | MVIRRTYMARDNTYYLDEALYISAQAPTGIELSFIGGGGPGSGGWGLSDGYPRGTSPTKNDIARVISTRRVLTEEFQIIEKDYSDKYAHETNQLPETINALKAQIKAEASSTNGAASPFVTEQQILSSRISQIRDGYLQILPDANNYFGVPAFYKRGDSMMSRFLDPGFFAATTGQELGVEWATRLQKSWEGTYRLHLEAQKHQALADELRALASQVDQEELSQQPLDLLQVIARRTAQIHTERQIHFDCLPNVLQHELGQTVIDDTLTLVQTFSTYLATAAALVQAKQSQIPPYQDQNPRINSPLSKPQLEGLLHLVDEQRLRRAGPRWQEYHLALALTESIRFLGVYAGATQNLMQRAAEVENLQAQLAAQEEAARQQAEAERLAAEAERQRQEALRRSVSYINEARLAVSTPAVIPIGATTFAVAEAAYSALAESIAAALTRLVATTVPSVAVGTLAMAWPSTLGNSERQYLISTPLDSLSPAGGPDLAALAASSTSIDLPYLLAGVENENELDLYVVPSGKPVAVRAATFDSERQVYSLALDNPQRILTWTPASAPGGDEGNSTSLPLVPPGTVVYTGSSLNPVVTEQEGYPALDLLDQERLIITFPMDSGLPPILVVFKSPRYEAGTSTGHGAQVSDTWRKEAASLEGAPIPAQIAELLKSREFRNFDAFRRQFWKAVANDPELSKQFDEMSLSRMRKNGYSPIVDFPDSHLSQKTFILHHVIPISEGGGVYDMDNIRIVTPLSHNSIHYGTKPLEHHHHHH | not soluble
